The text below walks through data of PMC11949031.

Common to all, as to test: Ni-NTA pull-down with immunoblot quantification (ImageJ)
What all share (settings): chain shown with the change; U2OS UNC45A-KO cells cotransfected; 5 independent experiments; parent: est. 1; read off a plot
(Immunoblotting shows a protein as a band on a membrane.)

The target in assay [1] is T1, His-tagged UNC45A p.Leu237Pro mutant, Q9H3U1-1.
T1 chain: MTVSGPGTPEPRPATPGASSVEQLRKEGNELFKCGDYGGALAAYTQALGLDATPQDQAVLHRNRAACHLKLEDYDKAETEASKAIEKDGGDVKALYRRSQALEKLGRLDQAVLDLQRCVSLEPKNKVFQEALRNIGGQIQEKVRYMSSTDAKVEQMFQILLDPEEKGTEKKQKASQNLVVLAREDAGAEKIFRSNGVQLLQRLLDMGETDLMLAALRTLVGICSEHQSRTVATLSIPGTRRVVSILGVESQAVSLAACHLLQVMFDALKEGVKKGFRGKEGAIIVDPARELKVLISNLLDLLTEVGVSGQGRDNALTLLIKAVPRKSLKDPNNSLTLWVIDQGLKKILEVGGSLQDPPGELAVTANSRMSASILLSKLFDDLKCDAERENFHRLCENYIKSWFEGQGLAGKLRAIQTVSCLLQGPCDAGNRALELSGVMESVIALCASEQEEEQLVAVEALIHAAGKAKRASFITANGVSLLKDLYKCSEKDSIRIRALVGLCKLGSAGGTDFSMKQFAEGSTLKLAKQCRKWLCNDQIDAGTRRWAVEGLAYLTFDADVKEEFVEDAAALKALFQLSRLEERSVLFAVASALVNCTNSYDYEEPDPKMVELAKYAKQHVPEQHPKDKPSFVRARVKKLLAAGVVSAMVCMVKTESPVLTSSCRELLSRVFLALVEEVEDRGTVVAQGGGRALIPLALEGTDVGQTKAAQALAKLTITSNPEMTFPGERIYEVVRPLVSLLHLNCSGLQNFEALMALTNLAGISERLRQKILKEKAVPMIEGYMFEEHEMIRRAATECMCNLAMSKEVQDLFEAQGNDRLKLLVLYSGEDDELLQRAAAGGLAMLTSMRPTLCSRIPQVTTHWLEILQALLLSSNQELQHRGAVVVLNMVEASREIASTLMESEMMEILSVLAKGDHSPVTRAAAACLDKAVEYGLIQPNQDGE

Assay [2] deals with T2, HA-tagged UNC45A wild-type (Unc-45 myosin chaperone A), Q9H3U1-1.
T2 chain: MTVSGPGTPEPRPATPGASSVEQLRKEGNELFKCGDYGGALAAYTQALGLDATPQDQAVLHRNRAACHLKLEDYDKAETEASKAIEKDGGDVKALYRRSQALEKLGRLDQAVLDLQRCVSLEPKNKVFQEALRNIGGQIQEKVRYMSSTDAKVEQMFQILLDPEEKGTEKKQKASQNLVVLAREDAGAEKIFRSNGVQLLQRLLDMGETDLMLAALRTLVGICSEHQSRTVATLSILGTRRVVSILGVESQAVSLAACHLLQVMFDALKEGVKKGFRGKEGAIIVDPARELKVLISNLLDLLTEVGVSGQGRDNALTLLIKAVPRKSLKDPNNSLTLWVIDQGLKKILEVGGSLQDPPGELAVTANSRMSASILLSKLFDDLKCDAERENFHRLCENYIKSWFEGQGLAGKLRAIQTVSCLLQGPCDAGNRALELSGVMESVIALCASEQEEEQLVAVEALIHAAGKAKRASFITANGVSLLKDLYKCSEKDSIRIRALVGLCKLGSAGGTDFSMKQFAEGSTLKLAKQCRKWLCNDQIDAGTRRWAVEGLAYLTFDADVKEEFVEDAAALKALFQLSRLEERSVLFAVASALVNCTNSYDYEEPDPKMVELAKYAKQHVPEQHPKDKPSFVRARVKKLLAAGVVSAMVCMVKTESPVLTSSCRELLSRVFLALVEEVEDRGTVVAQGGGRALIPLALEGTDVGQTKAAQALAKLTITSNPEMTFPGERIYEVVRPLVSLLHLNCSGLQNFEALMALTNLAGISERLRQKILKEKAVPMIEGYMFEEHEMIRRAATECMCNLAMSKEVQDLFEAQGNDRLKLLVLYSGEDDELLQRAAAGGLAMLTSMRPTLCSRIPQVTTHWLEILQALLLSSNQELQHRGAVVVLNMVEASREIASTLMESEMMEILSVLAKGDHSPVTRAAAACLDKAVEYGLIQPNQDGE

The target of assay [3] is T3, His-tagged UNC45A wild-type, Q9H3U1-1.
T3 chain: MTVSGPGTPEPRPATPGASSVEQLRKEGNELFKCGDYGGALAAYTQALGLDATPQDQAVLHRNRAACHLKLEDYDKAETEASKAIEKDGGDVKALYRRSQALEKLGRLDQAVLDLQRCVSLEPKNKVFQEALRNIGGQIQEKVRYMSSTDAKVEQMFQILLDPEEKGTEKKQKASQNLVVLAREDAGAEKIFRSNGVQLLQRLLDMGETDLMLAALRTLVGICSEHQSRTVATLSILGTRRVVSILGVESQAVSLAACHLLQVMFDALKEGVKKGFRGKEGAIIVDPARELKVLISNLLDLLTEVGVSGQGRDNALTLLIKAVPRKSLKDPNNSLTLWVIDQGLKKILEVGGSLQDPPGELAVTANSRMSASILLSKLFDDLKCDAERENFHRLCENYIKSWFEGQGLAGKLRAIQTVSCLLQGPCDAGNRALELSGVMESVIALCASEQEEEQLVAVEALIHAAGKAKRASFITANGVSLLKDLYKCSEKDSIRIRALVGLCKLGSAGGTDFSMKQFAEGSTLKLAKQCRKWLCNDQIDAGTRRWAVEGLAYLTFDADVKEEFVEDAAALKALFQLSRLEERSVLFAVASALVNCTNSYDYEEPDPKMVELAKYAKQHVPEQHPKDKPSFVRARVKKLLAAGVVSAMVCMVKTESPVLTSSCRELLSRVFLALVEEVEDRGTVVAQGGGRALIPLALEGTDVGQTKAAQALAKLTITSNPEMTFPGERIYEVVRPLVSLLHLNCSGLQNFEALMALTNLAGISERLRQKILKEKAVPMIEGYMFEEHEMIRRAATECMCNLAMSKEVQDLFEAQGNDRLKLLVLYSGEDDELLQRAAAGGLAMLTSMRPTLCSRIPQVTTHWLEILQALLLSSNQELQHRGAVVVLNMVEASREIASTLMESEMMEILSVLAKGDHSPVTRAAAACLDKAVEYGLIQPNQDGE

B1: m1 (prey) and m3 (bait) p.Leu237Pro (HA-tagged prey); p.Leu237Pro (His-tagged bait) (protein)
chain: MTVSGPGTPEPRPATPGASSVEQLRKEGNELFKCGDYGGALAAYTQALGLDATPQDQAVLHRNRAACHLKLEDYDKAETEASKAIEKDGGDVKALYRRSQALEKLGRLDQAVLDLQRCVSLEPKNKVFQEALRNIGGQIQEKVRYMSSTDAKVEQMFQILLDPEEKGTEKKQKASQNLVVLAREDAGAEKIFRSNGVQLLQRLLDMGETDLMLAALRTLVGICSEHQSRTVATLSIPGTRRVVSILGVESQAVSLAACHLLQVMFDALKEGVKKGFRGKEGAIIVDPARELKVLISNLLDLLTEVGVSGQGRDNALTLLIKAVPRKSLKDPNNSLTLWVIDQGLKKILEVGGSLQDPPGELAVTANSRMSASILLSKLFDDLKCDAERENFHRLCENYIKSWFEGQGLAGKLRAIQTVSCLLQGPCDAGNRALELSGVMESVIALCASEQEEEQLVAVEALIHAAGKAKRASFITANGVSLLKDLYKCSEKDSIRIRALVGLCKLGSAGGTDFSMKQFAEGSTLKLAKQCRKWLCNDQIDAGTRRWAVEGLAYLTFDADVKEEFVEDAAALKALFQLSRLEERSVLFAVASALVNCTNSYDYEEPDPKMVELAKYAKQHVPEQHPKDKPSFVRARVKKLLAAGVVSAMVCMVKTESPVLTSSCRELLSRVFLALVEEVEDRGTVVAQGGGRALIPLALEGTDVGQTKAAQALAKLTITSNPEMTFPGERIYEVVRPLVSLLHLNCSGLQNFEALMALTNLAGISERLRQKILKEKAVPMIEGYMFEEHEMIRRAATECMCNLAMSKEVQDLFEAQGNDRLKLLVLYSGEDDELLQRAAAGGLAMLTSMRPTLCSRIPQVTTHWLEILQALLLSSNQELQHRGAVVVLNMVEASREIASTLMESEMMEILSVLAKGDHSPVTRAAAACLDKAVEYGLIQPNQDGE
As for B1, the ratio to parent in assay [1] stood at 12 fold change.

B2: His-tagged UNC45A wild-type, Q9H3U1-1 p.Leu237Pro (protein)
chain: MTVSGPGTPEPRPATPGASSVEQLRKEGNELFKCGDYGGALAAYTQALGLDATPQDQAVLHRNRAACHLKLEDYDKAETEASKAIEKDGGDVKALYRRSQALEKLGRLDQAVLDLQRCVSLEPKNKVFQEALRNIGGQIQEKVRYMSSTDAKVEQMFQILLDPEEKGTEKKQKASQNLVVLAREDAGAEKIFRSNGVQLLQRLLDMGETDLMLAALRTLVGICSEHQSRTVATLSIPGTRRVVSILGVESQAVSLAACHLLQVMFDALKEGVKKGFRGKEGAIIVDPARELKVLISNLLDLLTEVGVSGQGRDNALTLLIKAVPRKSLKDPNNSLTLWVIDQGLKKILEVGGSLQDPPGELAVTANSRMSASILLSKLFDDLKCDAERENFHRLCENYIKSWFEGQGLAGKLRAIQTVSCLLQGPCDAGNRALELSGVMESVIALCASEQEEEQLVAVEALIHAAGKAKRASFITANGVSLLKDLYKCSEKDSIRIRALVGLCKLGSAGGTDFSMKQFAEGSTLKLAKQCRKWLCNDQIDAGTRRWAVEGLAYLTFDADVKEEFVEDAAALKALFQLSRLEERSVLFAVASALVNCTNSYDYEEPDPKMVELAKYAKQHVPEQHPKDKPSFVRARVKKLLAAGVVSAMVCMVKTESPVLTSSCRELLSRVFLALVEEVEDRGTVVAQGGGRALIPLALEGTDVGQTKAAQALAKLTITSNPEMTFPGERIYEVVRPLVSLLHLNCSGLQNFEALMALTNLAGISERLRQKILKEKAVPMIEGYMFEEHEMIRRAATECMCNLAMSKEVQDLFEAQGNDRLKLLVLYSGEDDELLQRAAAGGLAMLTSMRPTLCSRIPQVTTHWLEILQALLLSSNQELQHRGAVVVLNMVEASREIASTLMESEMMEILSVLAKGDHSPVTRAAAACLDKAVEYGLIQPNQDGE
For the molecule B2, in assay [2], the ratio to parent stood at 2.2 fold change.

B3: HA-tagged UNC45A wild-type (Unc-45 myosin chaperone A), Q9H3U1-1 p.Leu237Pro (protein)
chain: MTVSGPGTPEPRPATPGASSVEQLRKEGNELFKCGDYGGALAAYTQALGLDATPQDQAVLHRNRAACHLKLEDYDKAETEASKAIEKDGGDVKALYRRSQALEKLGRLDQAVLDLQRCVSLEPKNKVFQEALRNIGGQIQEKVRYMSSTDAKVEQMFQILLDPEEKGTEKKQKASQNLVVLAREDAGAEKIFRSNGVQLLQRLLDMGETDLMLAALRTLVGICSEHQSRTVATLSIPGTRRVVSILGVESQAVSLAACHLLQVMFDALKEGVKKGFRGKEGAIIVDPARELKVLISNLLDLLTEVGVSGQGRDNALTLLIKAVPRKSLKDPNNSLTLWVIDQGLKKILEVGGSLQDPPGELAVTANSRMSASILLSKLFDDLKCDAERENFHRLCENYIKSWFEGQGLAGKLRAIQTVSCLLQGPCDAGNRALELSGVMESVIALCASEQEEEQLVAVEALIHAAGKAKRASFITANGVSLLKDLYKCSEKDSIRIRALVGLCKLGSAGGTDFSMKQFAEGSTLKLAKQCRKWLCNDQIDAGTRRWAVEGLAYLTFDADVKEEFVEDAAALKALFQLSRLEERSVLFAVASALVNCTNSYDYEEPDPKMVELAKYAKQHVPEQHPKDKPSFVRARVKKLLAAGVVSAMVCMVKTESPVLTSSCRELLSRVFLALVEEVEDRGTVVAQGGGRALIPLALEGTDVGQTKAAQALAKLTITSNPEMTFPGERIYEVVRPLVSLLHLNCSGLQNFEALMALTNLAGISERLRQKILKEKAVPMIEGYMFEEHEMIRRAATECMCNLAMSKEVQDLFEAQGNDRLKLLVLYSGEDDELLQRAAAGGLAMLTSMRPTLCSRIPQVTTHWLEILQALLLSSNQELQHRGAVVVLNMVEASREIASTLMESEMMEILSVLAKGDHSPVTRAAAACLDKAVEYGLIQPNQDGE
B3: in assay [3], the ratio to parent was 1.6 fold change.
